Measured values reported in patent publication US20120277143A1 (Janssen / Centocor, published 2012).
Where a chain is given by its changes, count along the chain named.

T1: human IL4 (human, UniProt P05112 25-153, biotinylated in the SPR and competition assays (sites not given))
T1 sequence: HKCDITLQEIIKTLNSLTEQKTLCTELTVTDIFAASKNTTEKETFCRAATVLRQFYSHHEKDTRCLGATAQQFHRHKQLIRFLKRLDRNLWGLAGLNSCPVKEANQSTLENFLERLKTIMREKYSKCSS

B1: C06_6E9 (designed binder)
chain: DLGKKLLEAARAGQDDEVRILMANGADVNAIDSDGTTPLHLAAMDGHLEIVEVLLKYGADVNAVDWNGDTPLHLAAVDGHLEIVEVLLKYGADVNAQDNLGDTPLHLAAYYGHLEIVEVLLKHGADVNASDFHGITPLHLAAFSGHLEIVEVLLKYGADVNAQDKFGKTAFDISIDNGNEDLAEILQKLN
notes: ankyrin repeat protein; His-tagged, IMAC-purified
B2: C06_53G6 (designed binder)
chain: NLGKKLLEAARAGQDDEVRILMANGADVNATDDWGDTLLHLAATDGHLEIVEVLLKYGADVNANDAIGDTPLHLAALYGHLEIVEVLLKYGADVNATDLHGFTPLHLAAFWGHLEIVEVLLKHGADVNAQDKFGKTAFDISIDNGNEDLAEILQKLN
notes: as for B1
B3: 9E11 (designed binder)
chain: DLGKKLLEAARAGQDDEVRILMANGADVNASDIYGSTPLHLAARHGHLEIVEVLLKNGADVNANDMIGDTPLHLAAYHGHLEIVEVLLKHGADVNASDITGETPLHLAAHNGHLEIVEVLLKYGADVNAQDKFGKTAFDISIDNGNEDLAEILQKLN
notes: N-Cap-(AR)3-C-Cap
B4: 6G11 (designed binder)
chain: DLGKKLLEAARAGQDDEVRILMANGADVNAEDILGITPLHLAAHHGHLEIVEVLLKHGADVNANDFAGYTPLHLAAVYGHLEIVEVLLKYGADVNATDAWGETPLHLAAYTGHLEIVEVLLKHDADVNAQDKFGKTAFDISIDNGNEDLAEILQKLN
notes: N-Cap-(AR)3-C-Cap
B5: 5D12 (designed binder)
chain: DLGKKLLEAARAGQDDEVRILMANGADVNAVDDYGSTPLHLAARQGHLEIVEVLLKNGADVNADDFIGDTPLHLAAFKGHLEIVEVLLKNGADVNASDITGETPLHLAATAGHLEIVEVLLKHGADVNAQDKFGKTAFDISIDNGNEDLAEILQKLN
notes: N-Cap-(AR)3-C-Cap
B6: 7C6 (designed binder)
chain: B3 chain with S31M, I33K, H45S, N57H, N64T, M66F, S97E, H110E, N111S, Y123H
notes: N-Cap-(AR)3-C-Cap
B7: 5H7 (designed binder)
chain: B3 chain with S31A, I33M, S36T, L39Q, H45T, N57Y, N64A, M66F, I67L, N111L
notes: N-Cap-(AR)3-C-Cap
B8: 6D4 (designed binder)
chain: DLGKKLLEAARAGQDDEVRILMANGADVNAADDYGSTPLHLAARSGHLEIVEVLLKHGADVNANDFIGDTPLHLAAYNGHLEIVEVLLKNGADVNATDITGETPLHLAAERGHLEIVEVLLKNGADVNTQDKFGKTAFDISIDNGNEDLAEILQKLN
notes: N-Cap-(AR)3-C-Cap
B9: 7D2 (designed binder)
chain: DLGKKLLEAARAGQDDEVRILMANGADVNAFDDFGSTPLHLAARSGHLEIVEVLLKHGADVNAHDMIGDTPLHLAAYHGHLEIVEVLLKYGADVNAKDTSGTTPLHLAADSGHLEIVEVLLKHGADVNAQDKFGKTAFDISIDNGNEDLAEILQKLN
notes: N-Cap-(AR)3-C-Cap
B10: 10A6 (designed binder)
chain: DLGKKLLEAARAGQDDEVRILMANGADVNAIDHFDSTPLHLAARHGHLEIVEVLLKNGADVNADDFLGDTPLHLAAYHGHLDIVEVLLKHGADVNAQDKFGKTAFDISIDNGNEDLAEILQKLN
notes: N-Cap-(AR)2-C-Cap, only 2 ARs
B11: 5B9 (designed binder)
chain: DLGKKLLEAARAGQDDEVRILMANGADVNATDVFGSTPLHLAARHGHLEIVEVLLKHGADVNATDFIGDTPLHLAAYHGHLEIVEVLLKHGADVNAKNGETPLHLAAYHGHPDIVEVLLKHGADVNAQDKFGKTAFDISIDNGNEDLAEILQKLN
notes: N-Cap-(AR)3-C-Cap

Target: T1, human IL4
Experiment: cell-based or functional assay

Binder	A549 TARC Inhibition IC50 [pM]	HEK Stat6 Inhibition IC50 [pM]	Type 1 Complex inhibition IC50 [pM]
B1	131	0.6	0.4
B2	135	2.1	0.9

Target: T2, human IL13 (human, UniProt P35225 35-146, biotinylated in the SPR assays (sites not given))
T2 sequence (P35225 other isoform, or with tags, fused parts or gaps limits assumed): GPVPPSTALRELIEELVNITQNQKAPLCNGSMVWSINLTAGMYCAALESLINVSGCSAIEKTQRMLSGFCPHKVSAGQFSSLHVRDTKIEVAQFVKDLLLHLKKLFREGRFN
Experiment: cell-based or functional assay

Binder	STAT6 Phospho IC50 [pM]	TARC expression IC50 [pM]
B3	0.9	109
B4	19.8	282
B5	5.4	34.1
B6	2.7	159
B7	42.9	132
B8	4.2	83.3
B9	4.8	14.6
B10	8	123
B11	16.5	372

Target: cyno IL13 (cynomolgus monkey, UniProt Q0PW92 21-132)
Sequence (Q0PW92 entry or part of it): as the sequence (P35225 other isoform, or with tags, fused parts or gaps limits assumed) above, with G1S, R10K, M42V, S67N, H83R, L100V, R110Q counted along it
Experiment: cell-based or functional assay

Binder	Cyno IL13 STAT6 IC50 [pM]
B3	33.4
B4	1210
B5	159
B6	48
B7	527
B8	51.3
B9	307
B10	1930
B11	654

Target: T2, human IL13
Experiment: SPR BIAcore, biotin-IL13 on SA chip, global fit
Procedure: Recombinant human IL13 (Peprotech) was minimally biotinylated on ice using sulfo-NHS-LCLC-Biotin and desalted into the experimental running buffer containing 10 mM HEPES, 150 mM NaCl, pH 7.4, 0.01% Tween-20, and 0.1 mg/mL BSA. Biotinylated IL13 was captured at three different surface densities (from about 150, 50, and 25 RU) onto three different BIAcore SA (streptavidin) sensor chips. Each binding protein sample was tested at 40 nM as the highest concentration in a 3-fold dilution series over the three different density IL13 surfaces. The dissociation phase for the highest concentration of the binding protein sample was monitored for one hour. The response data from each of the different density surfaces was globally fitted in order to extract estimates of the kinetic and affinity constants which are provided in Table 7 below.

Binder	Kd [pM]	koff [s⁻¹]	kon [M⁻¹ s⁻¹]
B3	21	1.3e-05	640000
B4	106	8e-05	754000
B5	168	0.000184	1.1e+06
B6	46.4	0.000224	4.82e+06
B7	263	0.000894	3.4e+06
B8	77.6	9.08e-05	1.17e+06
B9	95.5	0.000292	3.06e+06
B10	72.9	0.000201	2.76e+06
B11	169	0.000179	1.06e+06

Target: T1, human IL4
Experiment: SPR ProteOn, biotin-IL4 on neutravidin chip, 1:1 fit
Procedure: Purified binders selected as “hits” were ranked by their affinity on a ProteOn XPR-36 instrument (Bio-Rad). ProteOn is an optical biosensor instrument that measures protein-protein interactions in real time, based on Surface Plasmon Resonance technology similar to Biacore (GE). A rapid experimental protocol was performed as follows: On a GLC sensor chip (Bio-Rad), Neutravidin (Thermo Scientific) was covalently immobilized to a density of >5000 RU using amine coupling chemistry as described by the manufacturer. On one flow cell, biotinylated IL4 (Peprotech) was immobilized to a level of 250 RU, while another flow cell was used as reference, with neutravidin immobilized only. […] The retrieved values were used to rank the AR proteins by their affinity.

Binder	Kd [pM]	koff [s⁻¹]	kon [M⁻¹ s⁻¹]
B1	74.9	7.16e-05	956000
B2	73.4	5.11e-05	696000

Target: T1, human IL4
Experiment: Luminex competition, 67 pM biotin-IL4 binding to IL4RA-Fc beads
Procedure: For biotinylation of IL4, recombinant human IL4 (Peprotech) was biotinylated at a 4:1 ratio using EZ-Link NHS-LC-Biotin (Pierce, #21336) for 2 hours at RT. The protein was dialyzed in PBS overnight to remove excess biotinylation reagent. Competition binding for cynomologous IL4 (SEQ ID NO: 5) was performed using the isolated protein biotinylated in the same manner.
AR protein inhibition of IL4 binding to IL4 RA was assessed using IL4 RA-Fc (R&D Systems), comprising the Gly24-His232 which represents the ECD (SEQ ID NO: 5) fused to a human IgGl-Fc and therefor a disulfide linked homodimer. The protein was conjugated to carboxylated Luminex microspheres according to the manufacturer's protocol. For neutralization experiments, 5000 IL4RA-Fc conjugated beads in 50 μl were added to each well of a 96-well filter plate (Millipore). Biotinylated human IL4 was mixed with an appropriate dilution of AR protein in Luminex Assay Buffer (PBS, 1% BSA, pH 7.4) to give a final concentration of 67 pM IL4. The plate was incubated for 1 hour at RT in the dark on a plate shaker, set to shake vigorously to avoid bead aggregation. The plate was washed twice with 150 μl of wash buffer (PBS, 0.1% BSA, pH 7.4, 0.05% Tween-20) using a vacuum manifold followed by the addition of 50 μl of Streptavidin PE at 25 μg/ml and incubated at RT for 20 minutes. The plates were washed again and 150 μl of sheath fluid was added and the plate was placed on the shaker for 5 minute. Plates were read using a Luminex® 100 system; data were plotted as a function of AR protein concentration. IC₅₀ values were determined by fitting the data to the equation for sigmoidal dose response using PRISM software (GraphPAD PRISM) (Table 6).

Binder	IC50 [pM]
B1	7.6
B2	16.1

Target: T3, human IL13 R130Q (human, UniProt P35225 35-146, biotinylated (sites not given))
T3 construct: Peprotech; also called IL13R13Q; R111Q
T3 sequence (P35225 35-146 limits assumed, stated change not applied): as the sequence (P35225 other isoform, or with tags, fused parts or gaps limits assumed) above, with R110Q counted along it
Experiment: Luminex competition, 80 pM biotin-IL13 R130Q binding to IL13Ra2-Fc beads
Procedure: Binding protein inhibition of IL13 binding to Rα2 was assessed using IL13Rα2-Fc (R&D Systems) conjugated to carboxylated Luminex microspheres according to the manufacturer's protocol. For biotinylation of IL13, recombinant human IL13 R130Q (Peprotech) was biotinylated at a 4:1 ratio using EZ-Link NHS-LC-Biotin (Pierce, #21336) for 2 hours at RT. The protein was dialyzed in PBS overnight to remove excess biotinylation reagent. For neutralization experiments, 5000 IL13 Rα2-Fc conjugated beads in 50 μl were added to each well of a 96-well filter plate (Millipore). 50 μl of biotinylated human IL13 at 1 ng/ml (80 pM) was mixed with an appropriate dilution of binding protein in Luminex Assay Buffer (PBS, 1% BSA, pH 7.4). The plate was incubated for 1 hour at RT in the dark on a plate shaker, set to shake vigorously to avoid bead aggregation. The plate was washed 3 times with 150 μl of wash buffer (PBS, 1% BSA, pH 7.4, 0.05% Tween-20) using a vacuum manifold followed by the addition of 50 μl of Streptavidin PE at 25 μg/ml and incubated at RT for 20 minutes. The plates were washed again and 100 μl of sheath fluid was added and the plate was placed on the shaker for 1 minute. Plates were read using a Luminex® 100 system; data were plotted as a function of binding protein concentration. IC₅₀ values were determined by fitting the data to the equation for sigmoidal dose response using PRIZM software (GraphPAD PRIZM).

Binder	IC50 [pM]
B3	5.8
B4	10.1
B5	10.2
B6	10.6
B7	158
B8	4.8
B9	8.3
B10	7.5
B11	13.4
